The assay deals with 人IFNAR1 on cells (HEK Blue IFNα/β cells, Daudi cells, human whole blood) (human) (UniProt P17181). The experiment in a line: cell-based or functional assay.
人IFNAR1 on cells (HEK Blue IFNα/β cells, Daudi cells, human whole blood) (human), sequence (P17181 28-557): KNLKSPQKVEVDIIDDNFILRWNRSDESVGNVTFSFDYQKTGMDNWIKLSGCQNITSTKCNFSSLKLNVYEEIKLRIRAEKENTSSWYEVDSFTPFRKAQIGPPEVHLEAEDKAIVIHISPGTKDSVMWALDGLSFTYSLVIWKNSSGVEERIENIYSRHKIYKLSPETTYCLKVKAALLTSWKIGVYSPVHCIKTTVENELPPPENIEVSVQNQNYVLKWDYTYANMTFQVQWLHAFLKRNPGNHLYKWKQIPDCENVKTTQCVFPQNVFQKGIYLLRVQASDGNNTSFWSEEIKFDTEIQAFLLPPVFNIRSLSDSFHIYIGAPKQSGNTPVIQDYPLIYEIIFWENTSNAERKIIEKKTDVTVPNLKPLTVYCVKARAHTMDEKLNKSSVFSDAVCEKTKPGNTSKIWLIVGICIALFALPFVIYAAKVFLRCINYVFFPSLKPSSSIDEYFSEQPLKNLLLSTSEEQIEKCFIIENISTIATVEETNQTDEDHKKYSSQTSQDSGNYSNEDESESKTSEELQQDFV

Take Anifrolumab (antibody): the 抑制干扰素诱导的Daudi细胞增殖活性 (0.8ng/ml IFNα.2b, CellTiter-Glo) stood at 31.7 ng/mL; the 抑制干扰素诱导的HEK Blue IFNα/β细胞中STAT1/2磷酸化活性 (0.2ng/ml IFNα.2b, QUANTI-Blue OD630nm) is 4.43 ng/mL; the 抑制干扰素诱导的全血释放CXCL10/IP10活性 (8ng/ml IFNα.2b, 40ng/ml TNF-α, sandwich ELISA) was determined as 562 ng/mL.

The values above are taken from CN113521276A.
